Data from the nanobody polyreactivity screen of Harvey et al. (2022).

assay: yeast display, Sf9 membrane polyspecificity reagent, FACS + sequencing; frameworks hold sequencing errors
Outline: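 A nanobody's polyreactivity label depends on the gate it was sorted from. Yeast display cells were stained with 10% biotinylated, detergent-solubilized Sf9 membrane reagent for 1 hour at 4 °C, enriched on streptavidin microbeads and sorted by FACS. The low and high (top ~1%) gates were set on anti-HA fluorescence for expression and streptavidin fluorescence for reagent binding.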

Sequence	polyreactivity (PSR sort gate)
QVQLVESGGGLVQAGGSLRLSCAASGRIFSRYAMGWYRQAPGKERELVAAITSNGGSTYYADSVKGRFTISRDNAKNTVYLQMNSLKPEDTAVYYCAAKSYWLHYDYWGQGTQVTVSS	high polyreactivity
QVQLVESGGGLVQAGGSLRLSCAASGITFEVYDMGWYRQAPGKERELVAAITWSAGRTYYADSVKGRFTISRDNAKNTVYLQMNSLKPEDTAVYYCAAEVYYYYRTYSYIWNRVDYDYWGQGTQVTVSS	low polyreactivity
QVQLVESGGGLVQAGGSLRLSCAASGYIFGVYAMGWYRQAPGKERELVAVITVTGGSTYYADSVKGRFTISRDNAKNTVYLQMNSLKPEDTAVYYCAARGYGNLARVYHGYGYWGQGTQVTVSS	high polyreactivity
QVQLVESGGGLVQAGGSLRLSCAASGGIFGFNAMGWYRQAPGKERELVADISDGVRTNYADSVKGRFTISRDNAKNTVFLQMNSLKPEDTAVYYCATDGLFYVDGSWTLGYWGQGTQVTVSS	low polyreactivity
QVQLVESGGGLVQAGGSLRLSCAASGRIFGYYAMGWYRQAPGKERELVAAISWSGGRTYYADSVKGRFTISRDNAKNTVYLQMNSLKPEDTAVYYCNKVYRVPITEEYDYWGQGTQVTVSS	high polyreactivity
QVQLVESGGGLVQAGGSLRLSCAASGSIFRDNVMGWYRQAPGKERELVAAISKRGGSTYYADSVKGRFTISRDNAKNTVYLQMNSLKPEDTAVYYCAAPQGRSHYYRYDYWGQGTQVTVSS	high polyreactivity
QVQLVESGAGLVKAGGSLRLSCAASGFSFQRNAMGWYRQAPGKERELVAAINRSGGRTYYADSVKGRFTISRDNAKYTVYLQMNSLKPEDTAVYYCAADSTYEYYFWGQGTQVTVSS	high polyreactivity
QVQLVESGGGLVQAGGSLRLSCAASGFTFYRYAIGWYRQAPGKETQFFASISRSGGSTYYADSVKGRFTISRDNAKNTVYLQMNSLKPEDTEVYYCAKSYTSSPFRIRDYWGQGTQVTVSS	high polyreactivity
QVQLVESGGGLVQAGGSLRLSCAASGRIFIGYAMGWYRQAPGKERELVAAITSGGGTYYADSVKGRFTISRDNAKNTVYLQMNSLKPEDTAVYYCAAAQRYPIKYYYWGQGTQVTVSS	low polyreactivity
QVQLVESGGGLVQAGGSLRLSCAASGRIFPYNAMGWSRQAPGQERELVARIDSGGRTNYADSVKGRFTISRDNAKNTVYLQMNSLKPEDTAVYYCARVFSLARSWYRYYYWGQGTQVTVSS	high polyreactivity
QDQLVESGGGLVQAGGSLRLSCAASGSTFWANAMGWYRQAPGKEWELDARITYSGGSTYYADSVKGRFTISRDYAKNTVYLQMNSLKPEDTAVYYCAAEHYLCYDYWGQGTQVTVSS	low polyreactivity
QVQLVESGGGLVQAGGSLRLSCAASGSTFKRYAMGWYRQAPGKDRELVASISSGGSPNYADSVKGRFTISRDNAKNTVYLQMNSLKPEDTAVYYCAVSYRSFRYFWERYSSWGQGTQVTVSS	high polyreactivity
QVQLVESGGGLVQAGGSLRLSCAASGRILRYNALGWYRQAPGTERELVASISGNGGSTYYADSVKGRVTISRDNAKNTVYLQMNSLKPEDTALYYCNKYYYSSRGQKEYDYWGQGTQVTVSS	low polyreactivity
QVQLVESGGGLVQAGGSLRLSCAASGFTFGLYAMGWYRQAPGKERELVAVISSSGGSTYDADSVKGRFTISRDNAKNTVYLQMNSLKPEETAVYYCAAEWHDYKFDVTYDYWGQGTQVTVSS	low polyreactivity
QVQLVESGGGLVQAGGSLRLSCSASGRTFTVNAMGWYRQAPGKERELVATITYGGGSTYYADSVKGRFTISRDNAKNTVYVQMNSLKREDTAVYYCYADYWAVNYDYWGQGTQVTVSS	low polyreactivity
QVQLVESGGGLVQAGGSLRLSCAASGRIFTAYYAMGWYRQAPGKERELVASISSSGTSTYADSVKGRFTISRDNAKNTVYLQMNSLKPEDTAVYYCATRKLRTRRYDYGYWGQGTQVTVSS	low polyreactivity
QVQLVESGGGLVQAGGSLRLSCAASGSTFKVYAMGWYRQAPGKERELVAAISTGGGSTYYADSVKGRFTISRDNAKNTVSLQMNSLKPEDTAVYYCAAVDRYPYAGYYWGQGTQVTVSS	high polyreactivity
QDQHVESGGGLVQAGGSQRLSCAAYGFIFWIYAMGWYRQAPGKEREFVAVITYRGDTTYYADSVKGRFTISRDNAKNTVFLQMNSMKPEDTAVYYCAAYTVQKYGYWGQGTQVTVSS	low polyreactivity
QVQLVETGGGLVQAGGSLRLSCAASGSTFGINAMGWYRQAPGKERELVAAITASGCRTYYADSVKGRFTISRDNAKNTVYLQMNSLKPEDNAVYYCAARGTYYRRYDYWGQGTQVTVSS	low polyreactivity
QVQLVESGGGLVQAGGSLRLSCAASGFTFRAYAMGWYRQAPGKEREFVAAISRRGGSTSYADSVKGRFTISRDNAKNTVYLQMNSLKPEDTAVYYCAATYQILTTSAHDSWGQGTQVTVSS	high polyreactivity
QVQLVESGGGLVQAGGSLRLSCAASGSIFDWYAMGWYRQAPGKEGELVAAISSGDSTYYADSVKGRFTISRDNAKNTVYLQMNSLKPEYTAVYYCAAVTKLSGIRYNYWGQGTQVTVSS	low polyreactivity
QVQLVESGGGLVQAGGSLRLSCAASGSTFFIYAMGRYRQAPGKERELVAAISGSGGTTYYADSVKGRFTISRDNAKNTVYLQMNSLKPEDTAVYYCAARTFSAFWRGGYDYWGQGTQVTVSS	low polyreactivity
QVQLVESGGGLVQAGGSLRLSCAASGYTFPRYTMGWYRQAPGKERELVAAINWSGGSTYYADSVKGRFTISRDNAKNTVYLQMNSLKPEDTAVYYCAAPVFHLYTDRMGYWGQGTQVTVSS	high polyreactivity
QVQLVESGGGLVQAGGSLRLSCAASGFTFPGYARGWYRQAPGKERELVAAISRGGAGTYYADSVKGRFTISRDNAKNTVYLQMNSLKPEDTAVYYCAAVYYVDYPDGNYEYWGQGTQVTVSS	high polyreactivity
QVQLVESGGRLVQAGGSLSLSCAASGIILLHYAMGWYRQAPGKERELVAAISSSGGRTYYADSVKGRFTISRDTAKITFYLQLTSLKPEDTAVYYCNTLTRLVYDGMGYWGQGTQVTVSS	high polyreactivity
QVQLVESGGGLVQAGGSLRLSCAASGRTFGGNAMGWYRQAPGKERELVAAISARAGSTYYADSVKGRFTISRDNAKNTVYLQMNSLKPEDTAVYYCAARRYAYTGGYWGQGTQVTVSS	high polyreactivity
QVQLVESGGGLVQAGGSLRLSCAASGNTFRWYVMGWYRQAPGKERELVAAITSSGSTTYYADSVKGRFTISRDNAKNTVYLQMNSLKPEDTAVYYCAADGRTITYSPVDYDSWGQGTQVTVSS	low polyreactivity
QVQLVESGGGLVQAGGSLRLSCAASGRIFTYYTMGWYRQAPGKERELVAAISWSGGRTYYADSVKGRFTISRDNAKNTVYLQMNSLKPEDTAVFYCARLQDSRESPWRGYYWGQGTQVTVSS	high polyreactivity
QVQLVESGGGLVQAGGSLRLSCAASGSTFPYYDMGWYRQAPGKERELVAAISWSGDSTYYADSVKGRFTISRDNAKNTVYLQMKSLKAEDTAVYYCNADGKAGGDYDYWGQGTQVTVSS	low polyreactivity
QVQLVESGGGLVQAGGSLRLSCAASGSNFGYYAMGWYRQAPGKERELVAAISWRGGSTYYADSVTGRFTISRDNAKNTVYLQMNSLTPEDTAVYDCAAPVGNYGSFDYWGQGTQVTVSS	low polyreactivity
